Data reported in US6132722A, “Recombinant antibody-enzyme fusion proteins” (Bristol-Myers Squibb Company, priority 1998, dated 2000).

How the values were obtained:
p97 antigen = biological target: T1, p97 antigen (Homo sapiens, UniProt P08582); experiment: Surface plasmon resonance binding to immobilized p97 antigen; conditions: p97 immobilized on gold surface
T1 sequence (P08582 20-738): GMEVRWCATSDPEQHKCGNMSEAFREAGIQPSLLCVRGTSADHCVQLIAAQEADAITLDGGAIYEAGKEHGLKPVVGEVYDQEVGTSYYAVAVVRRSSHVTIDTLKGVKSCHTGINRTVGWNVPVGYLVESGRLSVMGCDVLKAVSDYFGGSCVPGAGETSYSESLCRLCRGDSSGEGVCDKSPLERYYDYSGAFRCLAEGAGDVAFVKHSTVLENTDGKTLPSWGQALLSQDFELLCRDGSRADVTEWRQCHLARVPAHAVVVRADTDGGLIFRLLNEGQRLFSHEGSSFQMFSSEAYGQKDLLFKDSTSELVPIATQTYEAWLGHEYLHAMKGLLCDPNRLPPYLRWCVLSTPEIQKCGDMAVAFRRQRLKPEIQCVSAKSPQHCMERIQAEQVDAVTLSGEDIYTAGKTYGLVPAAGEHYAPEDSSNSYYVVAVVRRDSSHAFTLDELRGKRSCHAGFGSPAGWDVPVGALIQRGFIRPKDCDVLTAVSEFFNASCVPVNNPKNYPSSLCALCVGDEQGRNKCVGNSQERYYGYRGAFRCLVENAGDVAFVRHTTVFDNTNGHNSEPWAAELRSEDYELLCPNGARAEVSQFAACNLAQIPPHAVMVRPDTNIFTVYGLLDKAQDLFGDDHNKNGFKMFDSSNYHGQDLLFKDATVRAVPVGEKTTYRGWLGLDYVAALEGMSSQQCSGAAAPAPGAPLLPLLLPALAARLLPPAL
Protocol: The binding characteristics of the sFv portion of the fusion protein were determined using a fluorescent activated cell sorting competition assay in which fusion protein and FITC-modified whole L49 competed for binding to cell-surface antigens on SK-MEL 28 melanoma cells. […] More detailed information about binding was obtained using surface plasmon resonance, which allowed the measurement of the on and off rates of L49-sFv-bL binding to the p97 antigen immobilized on a gold surface (Table 1).

3677 melanoma cells = experiment: In vitro cytotoxicity, [3H]thymidine incorporation; format: cell-based, human
Protocol: In Vitro Cytotoxicity. 3677 melanoma cells were plated into 96-well microliter plates (10^4 cells/well in 100 μL of Iscove's Modified Dulbecco's Medium (IMDM) with 10% fetal bovine serum, penicillin (60 μg/ml), and streptomycin (100 μg/ml) and allowed to adhere overnight. For blocking experiments, the cells were incubated with unconjugated L49 at 1 μM for 30 min. prior to treatment with the L49 conjugates. The cells were treated with L49-sFv-bL or L49 Fab'-bL at 10 nM. After 30 min. at 4° C., the plates were washed three times with antibiotic-free RPMI 1640 media (Gibco) with 10% fetal bovine serum, and then varying concentrations of CCM (FIG. 1) were added. CCM and PDM were also added to cells treated with media alone. After 1 h at 37° C., cells were washed three times with IMDM and incubated approximately 18 h at 37° C. The cells were then pulsed for 12 h with [^3 H] thymidine (1 μCi/well) at 37° C., detached by freezing at -20° C. and thawing, and harvested onto glass fiber filter mats using a 96-well harvester (Wallac, Gaithersburg, Md.). Radioactivity was counted using a LKB Wallac β-plate counter.
In Vitro Cytotoxicity. […] Radioactivity was counted using a LKB Wallac β-plate counter.
The cytotoxic effects of L49-sFv-bL in combination with CCM were determined on 3677 human melanoma cells, which express the p97 antigen. […]

B1: L49-sFv-bL: recombinant fusion protein: L49 anti-p97 single-chain Fv (VH-218 linker-VL) fused to r2-1 mutant E. cloacae β-lactamase, SEQ ID NO: 20 (protein)
chain: MKYLLPTAAAGLLLLAAQPAMAEVQLQESGPSLVKPSQTLSLTCSVTGDSITSGYWNWIRKFPGNKLEYMGYISDSGITYYNPSLKSRISITRDTSKNQYYLQLNFVTAEDTATYNCARRTLATYYAMDYWGQGTSVTVSSGSTSGSGKPGSGEGSTKGDFVMTQTPLSLPVSLGDQASISCRASQSLVHSNGNTYLHWYLQKPGQSPKLLIYRVSNRFSGVPDRFSGSGSGTDFTLKISRVEAEDLGVYFCSQSTHVPPTFGGGTKLEIKRTPVSEKQLAEVVANTITPLMKAQSVPGMAVAVIYQGKPHYYTFGKADIAANKPVTPQTLFELGSISKTFTGVLGGDAIARGEISLDDAVTRYWPQLTGKQWQGIRMLDLATYTAGGLPLQVPDEVTDNASLLRFYQNWQPQWKPGTTRLYANASIGLFGALAVKPSGMPYEQAMTTRVLKPLKLDHTWINVPKAEEAHYAWGYRDGKAVRVSPGMLDAQAYGVKTNVQDMANWVMANMAPENVADASLKQGIALAQSRYWRIGSMYQGLGWEMLNWPVEANTVVETSFGNVALAPLPVAEVNPPAPPVKASWVHKTGSTGGFGSYVAFIPEKQIGIVMLANTSYPNPARVEAAYHILEALQTSEFE
For B1, the Kd (p97 antigen) was 1 nM, the koff (p97 antigen) was 0.00042 s⁻¹ and the “cytotoxic activity of conjugate + CCM combination” value (3677 melanoma cells; conjugate 10 nM, washed, then CCM 1 h) was “equivalent in activity to PDM”. For the same molecule, the “activation of CCM on cells previously saturated with L49 mAb” value (3677 melanoma cells; unconjugated L49 1 μM before the fusion protein) was “did not activate CCM”.
